From patent US20050229275A1
One block for each molecule: values may come before it.

How the values were obtained:
murine mAbGA733 [1] = assay: competition ELISA: free GA733 (1-100 nM) varied, constant murine mAbGA733 (0.063 nM), plates coated with GA733
murine mAbGA733 [2] = assay: competition ELISA, free GA733 against coated GA733
[3] = molecular target: plant produced CO17-1A of Example 9; assay: competition ELISA: free GA733 (1-100 nM) varied, constant plant CO17 (1/500 dilution; protein A purified and ammonium sulfate fractionated preparations alike), plates coated with GA733
[4] = molecular target: colorectal cancer-associated antigen (Ag) GA733-2 (UniProt P16422); assay: ELISA, leaf extract on plates coated with Ag GA733-2, anti-mouse IgG peroxidase (whole molecule)
[5] = molecular target: colorectal cancer-associated antigen (Ag) GA733-2 (UniProt P16422); assay: ELISA, N. benthamiana leaf extract on plates coated with Ag GA733-2, anti-mouse IgG peroxidase (whole molecule or Fc specific)

- IC50 (murine mAbGA733 [1]): 35 nM
- fold higher antigen concentration for 50% inhibition, against plant expressed CO17-1A (murine mAbGA733 [2]): 5 fold
- IC50 [3]: 6.3 nM
Molecule: colorectal cancer-associated antigen (Ag) GA733-2 (from UniProt P16422 24-265)

- fold OD490 nm over controls (NI, HC, LC) [4]: 2 to 3 fold
B1: plant-produced rAB CO17-1A expressed from AlMV vectors A3a17-1ALC and A3b17-1AHC in Rep plants (antibody, INN chains, looked up, V domains shown)
VH: QVQLQQSGAELVRPGTSVKVSCKASGYAFTNYLIEWVKQRPGQGLEWIGVINPGSGGTNYNEKFKGKATLTADKSSSTAYMQLSSLTSDDSAVYFCARDGPWFAYWGQGTLVTVSA
VL: NIVMTQSPKSMSMSVGERVTLTCKASENVVTYVSWYQQKPEQSPKLLIYGASNRYTGVPDRFTGSGSATDFTLTISSVQAEDLADYHCGQGYSYPYTFGGGTKLEIK
modifications: plant-produced

- fold O.D.490 over controls (NI, HC, LC) [5]: 2 to 3 fold
B2: plant-produced rAb CO17-1A expressed from TMV vectors 30B-17HCK and 30B-17LC in Nicotiana benthamiana (antibody, INN chains, looked up, V domains shown, part only)
VH: QVQLQQSGAELVRPGTSVKVSCKASGYAFTNYLIEWVKQRPGQGLEWIGVINPGSGGTNYNEKFKGKATLTADKSSSTAYMQLSSLTSDDSAVYFCARDGPWFAYWGQGTLVTVSA
VL: NIVMTQSPKSMSMSVGERVTLTCKASENVVTYVSWYQQKPEQSPKLLIYGASNRYTGVPDRFTGSGSATDFTLTISSVQAEDLADYHCGQGYSYPYTFGGGTKLEIK
modifications: plant-produced, His tag
